Residues, ends and D or L forms follow the SMILES beside them. No end group written: not given here. *: point of attachment. Propyl(3-UDP) = O=c1ccn([C@@H]2O[C@H](COP(=O)(O)OP(=O)(O)OCCC*)[C@@H](O)[C@H]2O)c(=O)[nH]1; Floc = 5(6)-fluorescein carboxamide; Ahx = NCCCCCC(=O)O

The term Ki denotes a measure of affinity in units of concentration, obtained from inhibition or displacement. Broadly, the IC50 is the point on the concentration scale where inhibition reaches its midpoint. By Kd is commonly meant the concentration at which binding is half-saturated.

Test [1] deals with T1, hOGT (Homo sapiens, UniProt O15294).
T1 sequence (O15294 312-1031 isoform O15294-3): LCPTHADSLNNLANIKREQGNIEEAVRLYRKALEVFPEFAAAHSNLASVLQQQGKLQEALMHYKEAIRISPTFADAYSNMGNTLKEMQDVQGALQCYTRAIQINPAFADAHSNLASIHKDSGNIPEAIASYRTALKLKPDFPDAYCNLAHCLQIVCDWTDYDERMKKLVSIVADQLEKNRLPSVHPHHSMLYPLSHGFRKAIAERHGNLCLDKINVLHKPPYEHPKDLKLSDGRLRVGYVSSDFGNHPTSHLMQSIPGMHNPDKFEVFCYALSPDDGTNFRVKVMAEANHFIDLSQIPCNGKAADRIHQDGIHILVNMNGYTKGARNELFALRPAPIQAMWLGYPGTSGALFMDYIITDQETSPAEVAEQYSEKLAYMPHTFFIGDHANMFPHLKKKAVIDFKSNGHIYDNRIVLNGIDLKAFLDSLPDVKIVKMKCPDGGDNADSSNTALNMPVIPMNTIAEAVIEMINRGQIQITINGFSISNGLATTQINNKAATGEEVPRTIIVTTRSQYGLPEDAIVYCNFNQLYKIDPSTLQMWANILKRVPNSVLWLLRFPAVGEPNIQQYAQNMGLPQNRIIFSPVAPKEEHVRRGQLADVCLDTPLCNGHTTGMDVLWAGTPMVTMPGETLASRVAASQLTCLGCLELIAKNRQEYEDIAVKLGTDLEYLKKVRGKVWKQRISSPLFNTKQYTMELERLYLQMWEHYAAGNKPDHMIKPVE
In words: fluorescence polarimetry assay, displacement of probe 17 from hOGT. The settings on record: displacement of 0.75 µM 17 from 0.8 µM hOGT. It is filed as binding. As to the method:
The derived values of Ki = 7 ± 2 μM (1) and Ki = 5 ± 2 μM (UDP-5S-GlcNAc) were in agreement with the previously reported affinities,[20],[25] validating this assay.
Next, we used this assay platform to examine the effect of the peptide sequence on the inhibitory potency of the S-linked UDP–peptide conjugates. We compiled a set of peptides derived from the known hOGT substrate proteins RB2, TAB1, CK2, and KER, as well as a previously published hOGT sequon[38] (Table 1). The topology of the heptapeptides in the 7-S5C subseries (19–23) was chosen to replicate that of the peptide 5. The nonapeptides 9-S5C (24–26) were designed with a centrally located Cys. […] The TEC reaction of allyl-UDP 4 with all substrates worked routinely well to give an array of the novel S-linked UDP–peptide conjugates 29–38 (Table 1, Table S1) that were evaluated by the modified FP assay (Table 1, Figure 5).
Fluorescence polarimetry measurements […]
probe (125 nM) in 0.1 M Tris-HCl pH 7.5, 0.15 M NaCl, 0.5 mM TCEP and 5% DMSO in a total volume of 25 µL and incubated in the dark for 30 min before read-out.
Binding affinities for ligands were determined by 17 displacement. […] Fluorescence polarisation was measured on a PHERAStar plate reader (BMG LABTECH). Data analysis was performed in GraphPad Prism 7 and binding constants for the labelled 17 and 18 were determined by fitting a one-site – Total binding curve. […]

The target in test [2] is T1, hOGT. Briefly: fluorometric hOGT activity assay (UDP formation).
For a further test, the system named is SH-SY5Y cells. Briefly: total O-GlcNAcylation in cell culture, Western blot (SH-SY5Y). It is filed as cell-based. The settings on record: 24 h, concentrations up to 1 mM.
In test [3] the target is human O-GlcNAc transferase (human) (UniProt O15294).
The target in the next test is OGT. The arrangement: method as in PMID 23103942. The settings on record: read-out: Kd of donor substrate; cited from earlier work.
In test [4] the target is T2, human O-GlcNAc transferase (human, UniProt O15294 1-1046).
T2 sequence (looked up): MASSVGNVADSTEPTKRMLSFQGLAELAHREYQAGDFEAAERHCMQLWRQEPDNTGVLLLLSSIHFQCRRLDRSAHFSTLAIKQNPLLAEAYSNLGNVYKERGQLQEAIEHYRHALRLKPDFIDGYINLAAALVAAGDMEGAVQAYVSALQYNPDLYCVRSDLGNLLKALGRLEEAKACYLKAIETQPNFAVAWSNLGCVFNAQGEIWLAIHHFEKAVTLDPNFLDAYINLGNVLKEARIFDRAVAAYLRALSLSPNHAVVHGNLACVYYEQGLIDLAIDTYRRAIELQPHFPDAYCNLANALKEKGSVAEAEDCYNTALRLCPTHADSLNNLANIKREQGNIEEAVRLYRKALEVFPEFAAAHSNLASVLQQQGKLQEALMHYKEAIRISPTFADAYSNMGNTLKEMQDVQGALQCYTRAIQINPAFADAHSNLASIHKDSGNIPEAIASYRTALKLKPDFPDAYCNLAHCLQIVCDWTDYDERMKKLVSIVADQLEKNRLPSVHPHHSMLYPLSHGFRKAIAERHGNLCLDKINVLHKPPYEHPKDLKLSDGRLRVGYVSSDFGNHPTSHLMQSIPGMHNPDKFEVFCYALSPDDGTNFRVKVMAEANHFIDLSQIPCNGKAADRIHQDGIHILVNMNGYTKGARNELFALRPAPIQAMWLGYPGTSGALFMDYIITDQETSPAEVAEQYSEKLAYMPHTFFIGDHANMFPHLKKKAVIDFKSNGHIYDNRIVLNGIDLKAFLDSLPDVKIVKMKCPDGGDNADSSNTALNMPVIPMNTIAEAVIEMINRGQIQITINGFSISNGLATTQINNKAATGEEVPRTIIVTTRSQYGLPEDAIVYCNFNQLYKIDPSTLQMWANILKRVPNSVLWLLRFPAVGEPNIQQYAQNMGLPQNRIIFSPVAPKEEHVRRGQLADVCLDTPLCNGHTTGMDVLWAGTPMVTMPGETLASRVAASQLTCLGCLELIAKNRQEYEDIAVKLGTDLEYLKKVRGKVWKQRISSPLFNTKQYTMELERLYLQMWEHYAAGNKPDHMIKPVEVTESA
Briefly: fluorescence polarisation; competition: displacement of the fluorescent probe 17 from hOGT by unlabeled conjugates, Ki derived. The settings on record: both partners purified. For orientation: In fluorescence polarisation assays a small probe gives low polarisation when free and higher when bound to something large.

Test [5] addresses T2, human O-GlcNAc transferase. Briefly: cell-based or functional assay.
Test [6] deals with T2, human O-GlcNAc transferase. Briefly: fluorescence polarisation; competition: displacement of the fluorescent probe 17 from hOGT by unlabeled conjugates, Ki derived. The following applies: both partners purified. This is another data set of the same source.
The target of test [7] is T2, human O-GlcNAc transferase. Briefly: fluorescence polarisation; direct binding of the fluorescein-labeled conjugates 17 and 18 to hOGT. The settings on record: both partners purified.

The molecule `CC(=O)N[C@H](C(=O)N[C@H](C(=O)N1CCC[C@H]1C(=O)N[C@H](C(=O)N[C@@H](CSCCCOP(=O)(O)OP(=O)(O)OC[C@H]1O[C@@H](n2ccc(=O)[nH]c2=O)[C@H](O)[C@@H]1O)C(=O)N[C@@H](CCCNC(=N)N)C(=O)N[C@@H](C)C(N)=O)C(C)C)[C@@H](C)O)C(C)C` [compound 32] (Ac-VTPVC(Propyl(3-UDP))RA-NH2) returned a Ki at hOGT [1] of 1.3 ± 0.5 µM.

On to `CC(=O)N[C@@H](Cc1ccc(O)cc1)C(=O)NCC(=O)N[C@@H](CCCNC(=N)N)C(=O)N[C@@H](CCCCN)C(=O)N[C@@H](CCCCN)C(=O)N[C@@H](CCCNC(=N)N)C(=O)N[C@@H](CCCNC(=N)N)C(=O)N[C@@H](CCC(N)=O)C(=O)N[C@@H](CCCNC(=N)N)C(=O)N[C@@H](CCCNC(=N)N)C(=O)N[C@@H](CCCNC(=N)N)C(=O)NCCOCCOCC(=O)N[C@H](C(=O)N[C@H](C(=O)N1CCC[C@H]1C(=O)N[C@H](C(=O)N[C@@H](CSCCCOP(=O)(O)OP(=O)(O)OC[C@H]1O[C@@H](n2ccc(=O)[nH]c2=O)[C@H](O)[C@@H]1O)C(=O)N[C@H](C(=O)N[C@@H](C)C(N)=O)[C@@H](C)O)C(C)C)[C@@H](C)O)C(C)C` [compound 13], for which, at hOGT [2], the IC50 was 5 µM. Also, the “effect on total O-GlcNAcylation in cell cultures” value with SH-SY5Y cells was “neither 11 nor 13 had a noticeable effect”. Turning to `CC(=O)N[C@@H]1[C@@H](O)[C@H](O)[C@@H](CO)S[C@@H]1OP(=O)(O)OP(=O)(O)OC[C@H]1O[C@@H](n2ccc(=O)[nH]c2=O)[C@H](O)[C@@H]1O` [UDP-5S-GlcNAc, reference compound], the inhibition constant (Ki) at hOGT [1] came to 5 ± 2 µM.

Molecule “TAT-VTPVC(S-propyl-UDP)TA S-linked UDP-peptide conjugate 13” returned an inhibition of hOGT activity in vitro, IC50 in [3] of 5 µM.

As to `CC(=O)N[C@H]1[C@@H](OP(=O)(O)OP(=O)(O)OC[C@H]2O[C@@H](n3ccc(=O)[nH]c3=O)[C@H](O)[C@@H]2O)O[C@H](CO)[C@@H](O)[C@@H]1O` [UDP-GlcNAc], the Kd on OGT was 16 µM.

B1: S-linked UDP-peptide conjugate 36, PVFTC(S-propyl-UDP)RSAA (peptide)
peptide: PVFTC(S‑propyl‑UDP)RSAA
Take B1: the inhibition constant (Ki) in test [4] came to 56 ± 32 µM.

B2: S-linked UDP-peptide conjugate 6, VTPVC(S-propyl-UDP)TA (peptide)
peptide: VTPVC(S‑propyl‑UDP)TA
B2: in [5], the “inhibition of hOGT activity, fluorometric OGT activity assay, IC50” value was 2 µM. In test [4], affinity was put at a Ki of 1.3 ± 0.8 µM.

B3: S-linked UDP-peptide conjugate 31, VTPVC(S-propyl-UDP)SA (peptide)
peptide: VTPVC(S‑propyl‑UDP)SA
Regarding B3, in test [4], the affinity corresponds to a Ki of 1.2 ± 1.3 µM.

B4: O-linked UDP-peptide conjugate 1, VTPVS(O-propyl-UDP)TA (peptide)
peptide: VTPVS(O‑propyl‑UDP)TA
Take B4: the affinity in test [6], expressed as Ki, was 7 ± 2 µM.

B5: S-linked UDP-peptide conjugate 37, PVC(S-propyl-UDP)TATHSLSRLH (peptide)
peptide: PVC(S‑propyl‑UDP)TATHSLSRLH
In test [4], B5 yielded a Ki of 80 ± 46 µM.

B6: S-linked UDP-peptide conjugate 30, SVPYC(S-propyl-UDP)SA (peptide)
peptide: SVPYC(S‑propyl‑UDP)SA
Turning to B6, the affinity in [4] corresponds to a Ki of 2.3 ± 1.6 µM.

B7: S-linked UDP-peptide conjugate 29, VPTVC(S-propyl-UDP)TA (peptide)
chain: VPTVC(S‑propyl‑UDP)TA
In [4], B7 yielded a Ki of 12.8 ± 4.5 µM.

B8: S-linked UDP-peptide conjugate 38, KENSPAVTPVC(S-propyl-UDP)TA (peptide)
peptide: KENSPAVTPVC(S‑propyl‑UDP)TA
B8: in test [4], affinity was put at a Ki of 1.8 ± 1.3 µM.

B9: S-linked UDP-peptide conjugate 35, SVPYC(S-propyl-UDP)SAQS (peptide)
peptide: SVPYC(S‑propyl‑UDP)SAQS
In the case of B9, the affinity in [4] corresponds to a Ki of 15 ± 2.3 µM.

B10: S-linked UDP-peptide conjugate 34, VTPVC(S-propyl-UDP)TATH (peptide)
peptide: VTPVC(S‑propyl‑UDP)TATH
B10: the Ki in test [4] turned out to be 12.7 ± 2.3 µM.

B11: 5(6)-fluorescein carboxamide (Floc) labeled S-linked UDP-peptide conjugate 17 (peptide)
chain: {Floc-Ahx}-VTPVC(S‑propyl‑UDP)TA
In turn, B11 yielded a Kd in [7] of 1.6 µM.

B12: S-linked UDP-peptide conjugate 33, PVFTC(S-propyl-UDP)RS (peptide)
peptide: PVFTC(S‑propyl‑UDP)RS
B12: in [4], the Ki was 12.5 ± 7 µM.
